Paper PMC11510446, “Establishing a Relationship between In Vitro Potency in Cell-Based Assays and Clinical Efficacious Concentrations for Approved GLP-1 Receptor Agonists” (Pharmaceutics, 2024)
Read-outs that look alike come from different tables or passages of the source.

Key:
[1] = human, cited from earlier work
From the text: Pharmacokinetic parameters representing rate of absorption (Ka), central clearance (CL), central volume (Vc), peripheral volume (Vp), distribution clearance (CLd), bioavailability (F) and lag- time (Tlag).

human GLP-1R = human GLP-1R (Homo sapiens, UniProt P43220); assay: cAMP accumulation assay (HTRF) in stable CHO cell line expressing human GLP-1R; type: cell-based
Chain of human GLP-1R (P43220 24-463): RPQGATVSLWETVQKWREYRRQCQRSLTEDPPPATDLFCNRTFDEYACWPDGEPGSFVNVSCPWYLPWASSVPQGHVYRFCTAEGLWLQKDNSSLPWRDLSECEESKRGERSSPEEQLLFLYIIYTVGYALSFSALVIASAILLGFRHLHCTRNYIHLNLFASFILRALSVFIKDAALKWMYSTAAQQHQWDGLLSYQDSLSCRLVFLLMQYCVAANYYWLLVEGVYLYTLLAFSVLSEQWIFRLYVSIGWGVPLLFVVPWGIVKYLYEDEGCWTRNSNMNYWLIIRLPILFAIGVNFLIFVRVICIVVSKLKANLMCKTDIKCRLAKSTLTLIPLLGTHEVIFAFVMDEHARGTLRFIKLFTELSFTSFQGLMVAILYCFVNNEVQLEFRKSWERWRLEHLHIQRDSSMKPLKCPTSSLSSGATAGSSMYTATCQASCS
Procedure: Cell-based cyclic adenosine monophosphate (cAMP) accumulation assays were used to measure in vitro potency for GLP-1RAs in a stable Chinese hamster ovary (CHO) cell line expressing human GLP-1R (generated at AstraZeneca) or EndoC-βH1 cells endogenously expressing the GLP-1R (Endocells, Paris, France) as previously described. In brief, test GLP-1RA serial dilutions were prepared using an ECHO® acoustic liquid handler (Beckman, High Wycombe, UK) to obtain an 11-point dose–response curve in assay buffer (Hanks’ balanced salt solution (HBSS)) supplemented with 25 mM of HEPES and 0.5 mM of 3-isobutyl-1-methylxanthine (IBMX). […] The EndoC-βH1 cell assay was performed in an assay buffer containing 0.1% BSA.
Following compound and cell incubation for 30 min, the level of cAMP accumulation was determined using a cAMP dynamic 2 HTRF (homogeneous time-resolved fluorescence) kit (Cisbio, Codolet, France), following the two-step protocol according to the manufacturer’s guidelines. Treated cells were incubated with anti-cAMP cryptate and cAMP-d2 in lysis buffer at room temperature for 1 h and read on an Envision plate reader (PerkinElmer, Waltham, MA, USA).

| EC50 (human GLP-1R; read-out: EC50 (pM) 0.1%, NSB = BSA, shift assay Table S1A, 0.1% BSA) [pM] | EC50 (human GLP-1R; read-out: EC50 (pM) 0.1%, NSB = OA, shift assay Table S1B, 0.1% ovalbumin) [pM] | EC50 (human GLP-1R; read-out: EC50 (pM) 0.3%, NSB = BSA, shift assay Table S1A, 0.3% BSA) [pM] | EC50 (human GLP-1R; read-out: EC50 (pM) 0.3%, NSB = OA, shift assay Table S1B, 0.3% ovalbumin) [pM] | EC50 (human GLP-1R; read-out: EC50 (pM) 1%, NSB = BSA, shift assay Table S1A, 1% BSA) [pM] | EC50 (human GLP-1R; read-out: EC50 (pM) 1%, NSB = OA, shift assay Table S1B, 1% ovalbumin) [pM] | EC50 (human GLP-1R; read-out: EC50 (pM) 3%, NSB = BSA, shift assay Table S1A, 3% BSA) [pM] | EC50 (human GLP-1R; read-out: EC50 (pM) 3%, NSB = OA, shift assay Table S1B, 3% ovalbumin) [pM] | Compound | lag-time Tlag ([1]; T2D, ref [7] (supplement references)) [h] | bioavailability F ([1]; fraction, dulaglutide value at 1.5 mg, ref [4] dulaglutide, [5] semaglutide oral, [6] semaglutide sc, [7] liraglutide (supplement references)) | central clearance CL ([1]; population PK, T2D (semaglutide oral: T2D, obesity), ref [4] dulaglutide, [5] semaglutide oral, [6] semaglutide sc, [7] liraglutide (supplement references)) [L/h] | bioavailability F ([1]; in vivo) | central clearance CL ([1]; in vivo) [L/h] | central volume Vc ([1]; in vivo) [L] | distribution clearance CLd ([1]; in vivo) [L/h] | peripheral volume Vp ([1]; in vivo) [L] | rate of absorption Ka ([1]; in vivo) [h⁻¹] |
| --- | --- | --- | --- | --- | --- | --- | --- | --- | --- | --- | --- | --- | --- | --- | --- | --- | --- |
| – | – | – | – | – | – | – | – | CCCCCCCCCCCCCCCC(=O)N[C@@H](CCC(=O)NCCCC[C@H](NC(=O)[C@H](C)NC(=O)[C@H](C)NC(=O)[C@H](CCC(N)=O)NC(=O)CNC(=O)[C@H](CCC(=O)O)NC(=O)[C@H](CC(C)C)NC(=O)[C@H](Cc1ccc(O)cc1)NC(=O)[C@H](CO)NC(=O)[C@H](CO)NC(=O)[C@@H](NC(=O)[C@H](CC(=O)O)NC(=O)[C@H](CO)NC(=O)[C@@H](NC(=O)[C@H](Cc1ccccc1)NC(=O)[C@@H](NC(=O)CNC(=O)[C@H](CCC(=O)O)NC(=O)[C@H](C)NC(=O)[C@@H](N)Cc1cnc[nH]1)[C@@H](C)O)[C@@H](C)O)C(C)C)C(=O)N[C@@H](CCC(=O)O)C(=O)N[C@@H](Cc1ccccc1)C(=O)N[C@H](C(=O)N[C@@H](C)C(=O)N[C@@H](Cc1c[nH]c2ccccc12)C(=O)N[C@@H](CC(C)C)C(=O)N[C@H](C(=O)N[C@@H](CCCNC(=N)N)C(=O)NCC(=O)N[C@@H](CCCNC(=N)N)C(=O)NCC(=O)O)C(C)C)[C@@H](C)CC)C(=O)O [Liraglutide] | 6 | 0.51 | 0.91 | – | – | – | – | – | – |
| 9.07 | 46.4 | 10.8 | 34.1 | 12.1 | 30.7 | 9.7 | 26 | Dulaglutide: a DPP-IV-protected GLP-1 analog covalently linked to a human IgG4-Fc heavy chain by a peptide linker | – | – | – | 0.47 | 0.0593 | 2.25 | 0.0201 | 3.75 | 0.00769 |
